# In FireProtDB (doi:10.1021/bi000176d):
# Several values for one entry are separate records, joined by “and”; a condition that tells them apart may be missing. Identical values can stand only once.
# B1: Glutathione S-transferase A1 wild type, P08263 (protein)
# chain: MAEKPKLHYFNARGRMESTRWLLAAAGVEFEEKFIKSAEDLDKLRNDGYLMFQQVPMVEIDGMKLVQTRAILNYIASKYNLYGKDIKERALIDMYIEGIADLGEMILLLPVCPPEEKDAKLALIKEKIKNRYFPAFEKVLKSHGQDYLVGNKLSRADIHLVELLYYVEELDSSLISSFPLLKALKTRISNLPTVKKFLQPGSPRKPPMDEKSLEEARKIFRF
# Conditions: Homo sapiens, pH 7, 25 °C, Sodium phosphate 20 mM, NaCl 100 mM, transition: 3, reversible: yes, whole UniProt chain shown
protein,measurement,setting,value
B1,denaturant midpoint (higher = more stable),"GdnHCl, Absorbance",1.5 M and 1.3 M and 2.3 M
same,unfolding free energy,"GdnHCl, Absorbance",8.96 kcal/mol and 10.2 kcal/mol and 11.8 kcal/mol
same,denaturant m value,"GdnHCl, CD",4.8 kcal/mol/M
same,denaturant midpoint (higher = more stable),"GdnHCl, CD",2.2 M
same,unfolding free energy,"GdnHCl, CD",17 kcal/mol
same,denaturant midpoint (higher = more stable),"GdnHCl, Fluorescence",1.8 M and 1.1 M and 2.4 M
same,denaturant m value,"Urea, Absorbance",2.12 kcal/mol/M and 2.31 kcal/mol/M
same,denaturant midpoint (higher = more stable),"Urea, Absorbance",4.8 M and 4.1 M
same,unfolding free energy,"Urea, Absorbance",14 kcal/mol and 12.7 kcal/mol
same,denaturant m value,"Urea, CD",3.38 kcal/mol/M and 3.67 kcal/mol/M
same,denaturant midpoint (higher = more stable),"Urea, CD",5.3 M and 4.8 M
same,unfolding free energy,"Urea, CD",19.6 kcal/mol and 17.1 kcal/mol
